Measured values reported in patent US20200087414A1.
Several values for one entry are separate records, joined by “and”; a condition that tells them apart may be missing. Equal entries are not always repeated.

Assays:
[1] = molecular target: FcgammaRIIIA (CD16a), F158 allotype (UniProt P08637); test: SPR
[2] = molecular target: neonatal Fc receptor (FcRn) (UniProt P55899); test: SPR pH 6.0, Ab captured on goat anti-human IgG, FcRn flowed
[3] = molecular target: FcgammaRIIB (CD32b), Y163 allotype (UniProt P31994); test: SPR
Chain of FcgammaRIIB (CD32b), Y163 allotype (P31994 43-217 limits assumed): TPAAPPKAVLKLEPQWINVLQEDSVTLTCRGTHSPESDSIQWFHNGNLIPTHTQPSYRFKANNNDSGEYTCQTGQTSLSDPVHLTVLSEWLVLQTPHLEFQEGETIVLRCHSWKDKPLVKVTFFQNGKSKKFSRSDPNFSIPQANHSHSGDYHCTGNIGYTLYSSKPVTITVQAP

Chain of FcgammaRIIIA (CD16a), F158 allotype (P08637 17-208 limits assumed): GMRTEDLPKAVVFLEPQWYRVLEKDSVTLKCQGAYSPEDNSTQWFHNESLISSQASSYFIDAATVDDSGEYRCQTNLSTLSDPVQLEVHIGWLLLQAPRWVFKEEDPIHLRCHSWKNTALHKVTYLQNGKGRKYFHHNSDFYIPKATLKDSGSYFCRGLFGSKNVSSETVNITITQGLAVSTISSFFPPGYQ
Chain of neonatal Fc receptor (FcRn) (P55899 24-297 limits assumed, chain 1 of 2): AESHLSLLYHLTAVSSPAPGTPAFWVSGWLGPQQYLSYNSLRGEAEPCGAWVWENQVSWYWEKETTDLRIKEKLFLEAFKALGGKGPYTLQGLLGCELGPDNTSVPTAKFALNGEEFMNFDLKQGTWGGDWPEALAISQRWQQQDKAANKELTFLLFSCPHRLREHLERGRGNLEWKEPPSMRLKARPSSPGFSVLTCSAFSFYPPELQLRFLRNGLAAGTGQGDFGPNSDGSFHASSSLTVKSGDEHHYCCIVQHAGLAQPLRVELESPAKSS
Chain of neonatal Fc receptor (FcRn) (P61769 21-119 limits assumed, chain 2 of 2, further chain): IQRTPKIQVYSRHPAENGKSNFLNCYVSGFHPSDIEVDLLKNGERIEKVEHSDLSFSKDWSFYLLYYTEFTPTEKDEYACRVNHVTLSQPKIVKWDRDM

Substance | Kd [1] | Kd [2] [nM] | Kd [3] [nM]
AZ133 (A: L351Y/F405A/Y407V, B: T366L/K392M/T394W) (antibody) | 420 nM | 5000 | –
AZ138 (A: F405A/Y407V, B: T366L/K392M/T394W) (antibody) | 460 nM | – | –
AZ3002 (A: T350V/L351Y/F405A/Y407V, B: T350V/T366L/K392M/T394W) (antibody) | 460 nM | 4300 | 1200
AZ3003 (A: T350V/L351Y/F405A/Y407V, B: T350V/T366L/K392L/T394W) (antibody) | – | 3900 | 990
D399C_F405A_Y407V / T366L_K392C_T394W (antibody) | 510 nM | – | 1200
F405A_Y407V / T366L_T394W (antibody) | 480 nM | – | –
Herceptin WT (wild-type IgG1 anti-HER-2/neu antibody) | – | 3700 | 1700
Q347R_T350V_L351Y_S400E_F405A_Y407V / T350V_K360E_T366L_N390R_K392M_T394W (antibody) | 420 nM | – | 920
T350V_F405A_Y407V / T350V_T366L_K392M_T394W (antibody) | – | – | 1000
T350V_L351Y_S400E_F405A_Y407V / T350V_L351Y_T366L_N390R_K392M_T394W (antibody) | – | – | 710
T350V_L351Y_S400E_F405A_Y407V / T350V_T366L_N390R_K392F_T394W (antibody) | – | – | 710
T350V_L351Y_S400E_F405A_Y407V / T350V_T366L_N390R_K392L_T394W (antibody) | – | – | 910
T350V_L351Y_S400E_F405A_Y407V / T350V_T366L_N390R_K392M_T394W (antibody) | 450 nM and 420 nM | 5000 | 900
T350V_L351Y_S400E_F405S_Y407V / T350V_T366L_N390R_K392M_T394W (antibody) | 420 nM | – | 830
T350V_L351Y_S400E_F405T_Y407V / T350V_T366L_N390R_K392M_T394W (antibody) | – | – | 670
T350V_L351Y_S400R_F405A_Y407V / T350V_T366L_K392M_T394W (antibody) | – | – | 890
T350V_L351Y_S400R_F405A_Y407V / T350V_T366L_N390D_K392M_T394W (antibody) | – | – | 940
T350V_L351Y_S400R_F405A_Y407V / T350V_T366L_N390E_K392M_T394W (antibody) | 420 nM | – | 890
T350V_S400E_F405A_Y407V / T350V_T366L_N390R_K392M_T394W (antibody) | 450 nM | – | 1000
Y349C_D399C_F405A_Y407V / S354C_T366L_K392C_T394W (antibody) | 630 nM | – | –
Y349C_F405A_Y407V / S354C_T366L_T394W (antibody) | 580 nM | – | 1200
Y349C_T350V_F405A_Y407V / T350V_S354C_T366L_K392M_T394W (antibody) | 460 nM | 4100 | –
Y349C_T350V_L351Y_S400E_F405A_Y407V / T350V_S354C_T366L_N390R_K392M_T394W (antibody) | 420 nM | – | 950
